In assay [1] the test system is B-Raf mutated cell lines (H29, A375, A2058 and WM115). The assay is described as follows: Cell proliferative assays in B-Raf mutated cell lines. It is filed as cell-based. Conditions: four B-Raf mutated cell lines. As for the experimental part:
To investigate whether NRG signaling attenuates the anti-proliferative effects of trametinib or vemurafenib, cells were exposed to the drugs in the presence or absence of NRG. In addition, 2C2-YTE was introduced in a separate set of samples. Cell proliferative assays were performed in all four B-Raf mutated cell lines (H29, A375, A2058 and WM115).

Another assay has as its target T1, ErbB3 (HER3) (Homo sapiens (Human), UniProt P21860 20-1342).
T1 construct: They are human tumour lines, so human HER3 is meant; also called HER3 receptor
The assay is described as follows: binding of fluorescent probe to HT29, A375, A2058 and WM115 cells; mean fluorescence intensity, total over non-specific (excess unlabelled probe). How it is done:
The effects of trametinib and vemurafenib on cell-surface expressed ErbB3 were also monitored. HT29, A375, A2058 and WM115 cells were treated with 100 nM trametinib or 1 μM vemurafenib for 24 hours at 37° C. […] Specific binding was determined by calculating the mean fluorescent intensity ratio of total binding (labeled probe alone) divided by the non-specific binding (labeled probe with excess of unlabeled probe). Values should be reported as the binding ratio of drug-treated samples divided by the untreated sample.

“Also recorded” adds a separate entry of the source.

B1: NRG: neuregulin, HER3 ligand used to stimulate cells (protein)
chain: SHLVKCAEKEKTFCVNGGECFMVKDLSNPSRYLCKCPNEFTGDRCQNYVMASFYKHLGIEFMEAE
As for B1, the “effect of NRG on anti-proliferative effects of trametinib or vemurafenib” value in assay [1] is “can robustly attenuate the effects of BRAF and MEK inhibitors; also recorded: attenuates the anti-proliferative effects of the BRAF and MEK inhibitors”.

B2: 2C2-YTE anti-HER3 antibody (antibody, V domains shown)
VH: EVQLLESGGGLVQPGGSLRLSCAASGFTFSYYYMQWVRQAPGKGLEWVSYIGSSGGVTNYADSVKGRFTISRDNSKNTLYLQMNSLRAEDTAVYYCARVGLGDAFDIWGQGTMVTVSS
VL: QSVLTQPPSASGTPGQRVTISCSGSLSNIGLNYVSWYQQLPGTAPKLLISRNNQRPSGVPDRFSGSKSGTSASLAISGLRSEDEADYYCAAWDDSPPGEAFGGGTKLTVL
notes: In the phosphorylation and proliferation assays it was unlabelled; also called 2C2-YTE mutant antibody; anti-HER3 antibody (2C2-YTE); not shown: human lambda light chain constant region
For B2, the binding result with ErbB3 (HER3) is on record as “binds”.

(Values after US20170190788A1, “USES OF ANTI-HER3 ANTIBODIES FOR TREATING CANCER” (BULLDOG PHARMACEUTICALS, INC., priority 2014, published 2017).)
